Results: publication doi:10.1101/2022.07.10.499282

Target: CXCL4 (platelet factor 4, PF4) (human)
Experiment: AUC

stoichiometry N: 4
Substance: CXCL4 (platelet factor 4, PF4) (natural protein)
